PMC10783527

Assays:
[1] = molecular target: BCL11B213-560 (UniProt Q9C0K0 213-560); assay: EMSA
[2] = molecular target: T1, NTHL1 (UniProt P78549 1-304); assay: EMSA
T1 sequence: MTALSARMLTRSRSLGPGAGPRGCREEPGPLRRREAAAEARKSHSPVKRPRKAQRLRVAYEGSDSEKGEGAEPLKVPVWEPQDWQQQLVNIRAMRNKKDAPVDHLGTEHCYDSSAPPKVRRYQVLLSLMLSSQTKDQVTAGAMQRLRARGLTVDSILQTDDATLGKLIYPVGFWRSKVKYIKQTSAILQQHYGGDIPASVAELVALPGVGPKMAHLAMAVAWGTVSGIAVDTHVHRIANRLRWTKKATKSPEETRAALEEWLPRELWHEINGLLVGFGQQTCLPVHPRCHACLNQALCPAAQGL

BCL11B213-560, sequence (Q9C0K0 213-560): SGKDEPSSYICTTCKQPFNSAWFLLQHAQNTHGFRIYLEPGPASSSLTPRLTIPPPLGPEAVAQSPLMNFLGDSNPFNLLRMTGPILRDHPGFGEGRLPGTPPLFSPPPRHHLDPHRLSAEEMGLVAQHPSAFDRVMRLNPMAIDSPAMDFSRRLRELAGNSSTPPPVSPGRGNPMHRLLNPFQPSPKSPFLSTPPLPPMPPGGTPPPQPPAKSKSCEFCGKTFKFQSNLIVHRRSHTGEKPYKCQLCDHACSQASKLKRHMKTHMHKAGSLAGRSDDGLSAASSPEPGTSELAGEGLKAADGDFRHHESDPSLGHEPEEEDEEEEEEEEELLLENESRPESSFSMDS

B1: thymine glycol 32-mer duplex (dsDNA)
DNA 1: CCGGTGCATGACACTGTTACCTATCCTCAGCG
DNA 2: CGCTGAGGATAGGTAACAGTGTCATGCACCGG
modifications: thymine glycol at position 18 of strand 1 (printed X, written T)
B1: no binding [1]; binds [2].
